Source: US20200339680A1 (Alector, published 2020)

Columns and labels:
mouse TMEM106B = target: T1, mouse TMEM106B (mouse, UniProt Q80X71 2-275); assay: FACS Neuro2a;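 also: flow cytometry of antibody binding to cells: hybridoma supernatant or purified antibody at 10 µg/ml, 1 h on ice, secondary detection, propidium iodide–positive dead cells gated out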
T1 construct: transiently expressed on HEK293 cells, or native on mouse Neuro2a cells; also called moTMEM106B; murine TMEM106B
Method: (§1) All cells were cultured in either T75 or T150 flasks. […] The enzyme was quenched by addition of fresh media, and the cells were then distributed into 96-well plates for FACS analysis.
(§2) FACS analysis was performed as follows. Each cell type was aliquoted in 96-well round bottom plates (2×10^5 cells per well), washed once with FACS buffer (PBS+2% FBS+1 mM EDTA), and incubated with 50 μL of hybridoma supernatant or purified antibody (10 μg/ml in FACS buffer) on ice for 1 hour. […] Following this secondary incubation, the cells were again washed 2× with ice-cold FACS buffer and resuspended in a final volume of 50 μL of FACS buffer+0.25 μl/well propidium iodide (Fisher Scientific #4BDB556463). Analysis was performed on a FACSCanto system (BD Biosciences) or iQue (Intellicyt), with sort gates drawn to exclude dead (i.e., propidium iodide positive) cells.

human TMEM106B [1] = target: T2, human TMEM106B (human, UniProt Q9NUM4 2-274); assay: FACS A549 10 ug/ml
T2 construct: full-length, transiently expressed on HEK293 cells, or natively expressed on HeLa, U251 and A549 cells (the cell is named under assay); also the source of the Pepscan peptides; also called huTMEM106B; huTMEM

human TMEM106B [2] = target: T2, human TMEM106B; assay: FACS HEK+huTMEM 0.1 ug/ml;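 also: flow cytometry binding of purified mouse IgG antibodies to HEK293 cells transiently expressing TMEM106B, read as median fluorescence intensity on live cells (propidium iodide negative gating)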
human TMEM106B [3] = target: T2, human TMEM106B; assay: FACS HeLa
Method: as §1, §2

human TMEM106B [4] = target: T2, human TMEM106B; assay: FACS A549;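 also: flow cytometry of cells incubated on ice for 1 h with hybridoma supernatant or purified antibody at 10 µg/mL, dead propidium iodide-positive cells gated out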
Method: as §1, §2

human TMEM106B [5] = target: T2, human TMEM106B; assay: FACS HEK+huTMEM 10 ug/ml;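 also: flow cytometric binding of purified mouse IgG antibodies to HEK293 cells transiently expressing human TMEM106B, read as median fluorescence intensity on live cells with propidium iodide-positive cells excluded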
Method: (§3) Purified anti-TMEM106B antibodies were evaluated for their binding affinity to various TMEM106B-expressing cell lines including HEK293 transiently transfected with human/cyno/mouse TMEM106B, as well as HeLa cells and A549 cells. Antibodies tested for this experiment were mouse IgGs purified from hybridoma supernatant. Affinity binding to cells was determined as follows. Briefly, 1×10\hat{ }5 cells were aliquoted per well in 96-well round bottom plates and incubated with 50 μL of purified anti-TMEM106B antibody at various concentrations (10× dilutions starting at 10 μg/ml) in FACS buffer (PBS+2% FBS+1 mM EDTA). […] Sorting was performed on a iQue (Intellicyt), with sort gates drawn to exclude dead (propidium iodide+) cells. Binding data was analyzed using median fluorescent intensity (MFI) and graphed in Prism. Values presented are MFI.

human TMEM106B [6] = target: T2, human TMEM106B; assay: FACS U251
Method: as §1, §2

human TMEM106B [7] = target: T2, human TMEM106B; assay: FACS A549 1 ug/ml
Method: as §3

human TMEM106B [8] = target: T2, human TMEM106B; assay: FACS HEK+huTMEM 0.1 ug/ml (2nd column so headed);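 also: flow cytometry binding of purified anti-TMEM106B mouse IgG to HEK293 cells transiently transfected with TMEM106B, read as median fluorescence intensity on live (propidium iodide-negative) cells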
Method: as §3

human TMEM106B [9] = target: T2, human TMEM106B; assay: FACS HEK+huTMEM 1.0 ug/ml;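 also: binding of purified mouse IgG antibodies to HEK293 cells transiently expressing human TMEM106B, read by flow cytometry as median fluorescence intensity of live, propidium iodide-negative cells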

| Binder | MFI (mouse TMEM106B) [MFI] | MFI (human TMEM106B [1]) [MFI] | MFI (human TMEM106B [2]) [MFI] | MFI (human TMEM106B [3]) [MFI] | MFI (human TMEM106B [4]) [MFI] | MFI (human TMEM106B [5]) [MFI] | MFI (human TMEM106B [6]) [MFI] | MFI (human TMEM106B [7]) [MFI] | MFI (human TMEM106B [8]) [MFI] | MFI (human TMEM106B [9]) [MFI] |
| --- | --- | --- | --- | --- | --- | --- | --- | --- | --- | --- |
| TM-13 (antibody, V domains shown) VH: QVQLQQSGAELVKPGASVKMSCKASGYTFTTFPIEWMKQSHGKGLEWIGNFHPYNDDTKYNEKFKGKATLTVDKSSSTVYLDLSRLTSDDSAVYYCARYFYGGMDYWGQGTSVTVSS VL: DIQMTQSPASLSVSVGETVTITCRASENIYSSLGWYQQKQGESPQLLVFAATNLADGVPSRFSGSGSGTQYSLKINSLQSEDFGTYYCQHLWSIPWTFGGGTRLEIK | 927 | 3890 | 19100 | 1380 | 1260 | 67500 | 787 | 1950 | 2900 | 67100 |
| TM-21 (antibody, V domains shown) VH: EVQLVESGGGLVKPGGSLKLSCAASGFTFSNYAMSWVRETPEKRLEWVAFISDGGGYIYYADNVKDRFTISRDNAKNNLYLQMRHLKSEDTAMYYCARDGGTGFTYWGQGTLVTVSV VL: DIVMTQAAFSNPVTLGTSASISCRSSKSLLHSNGITYLFWYLQKPGQSPQLLIYQMSNLASGVPDRFSSSGSGTDFTLRISRVEAEDVGVYYCVQNLELPYTFGGGTKLEIK | 706 | 4230 | 15600 | 1200 | 1030 | 69400 | 672 | 2030 | 2350 | 69400 |
| TM-15 (antibody, V domains shown, mouse IgG (hybridoma)) VH: QVQLQQPGAEFVRPGASVKLSCKASGYTFTNYWITWVKQRPGHGLEWIGDIYPGSGNSNYNESFKRKATLTVDTSSSTAYMHLSSQTSEDSAVYFCARKAYGGFPYWGQGTLVTVSA VL: DIQMTQSPASLSVSVGETVTITCRVSENIYNNLAWYQQKQEKSPQLLVFAATNLADGVPSRFSGSGSGTQFSLKINSLQSEDFGTYYCQHFWDTPFTFGSGTKLEIK | 470 | 1980 | 2060 | 660 | 938 | 63100 | 382 | 650 | 584 | 14300 |
| TM-18 (antibody, V domains shown) VH: EVRLQQSGPELVKPGASVKISCKTSGYTFTDYYMNWVKQSHGKSLEWIVNINPNNGDAFYNQKFKGKATLTVDKSSNTAYLDLRSLTSEDSAVYYCAREGQLRLRRVYAMDYWGQGTSVTVSS VL: DIVLAQSPASLAVSLGQRATISCRASKSVSISVYTYVHWYQQKPGQPPKLLIYLASNLESGVPARFSGSGSGTDFTLNIHPVEEEDAATYYCQHSRELPYTFGGGTKLEIK | 1930 | 5190 | 10600 | 1920 | 1490 | 71700 | 874 | 2620 | 1740 | 67300 |
| TM-11 (antibody, V domains shown) VH: QVQLKQSGPGQVQPSQSLSITCTVSGFSLSDYGVHWVRQSPGKGLEWLGVIWNNGNTDYNAAFISRLSINKDNSKSQVFFKMTSLQADDTAIYYCVRSLRPLHFDYWGQGTTVTVSS VL: DIVMTQSPSSLTMSVGQKVTMHCKSSQSLLNSNNLQNYLAWYQQKPGQSPTLLVYFASIRESGVPDRFIGSGSGTDFTLTISSVQAEDLADYFCQQHYNTPFTFGSGTKLEIR | 1040 | 5580 | 16200 | 1870 | 1340 | 57900 | 866 | 2870 | 4280 | 54600 |
| TM-12 (antibody, V domains shown) VH: EVQLQQSGAELMRPGASVKLSCTASGFNIQDYYMYWVKQRPEQGLEWIGRIDPEDGDAEYAPKFQGKATMTADTSSNTAYLQLSSLTSEDTAVYYCSTRVIYDGYYRTMDCWGQGTSVTVSS VL: DVLMTQIPLSLPVSLGDQASISCRSSQTIVHSNGNTYLEWYLKKPGQSPKLLIDKISNRFSGVPDRFSGSGSGTDFTLKISRVEAEDLGVYYCFQGSHVPYTFGGGTKLEIK | 3040 | 4950 | 19700 | 2660 | 1940 | 75300 | 1330 | 3150 | 3340 | 77800 |
| TM-22 (antibody, V domains shown) VH: QVQLQQSGPELVKPGASVKISCKASGYRFTSYYIHWVKQRPGQGLEWIGWIYPGNGITNYNEKFKGKATLTADTSSSTAYMQLSSLTSEDSAVYYCASPYYGIRNCYFDVWGTGTTVTVSS VL: DVLMTQTPLSLPVSLGDHASISCRSGQSIVHSNGNTYLEWYLQKPGQSPKLLIYKVSNRFSGVPDRFSGSGSGTDFTLKISRVEAEDLGIYYCFQGSHVPWTFGGGTKLEIK | 400 | 478 | 833 | 408 | 1570 | 3580 | 313 | 399 | 500 | 2100 |
| TM-19 (antibody, V domains shown) VH: DVQLQQSGAELVRPGASVKLSCTASGFNIKDYYMYWVKQRPEQGLEWIGRIDPEDGDTENAPKFRGMATMTADTSSNTAYLQLNSLTSEDTAVYYCTTRIGNLYHVMDYWGHGTSVTVSS VL: DVLMTQTPLSLPVSLGDQASISCRSSQSIVHSNGNTYLEWYLQKPGQAPKLLIDKVFNRFSGVPDRFSGSGSGTDFTLKISRVEAEDLGVYYCFQGSHVPFTFGSGTKLEIK | 2140 | 4960 | 29800 | 2430 | 1820 | 79000 | 878 | 3640 | 3340 | 66800 |
| TM-14 (antibody, V domains shown, mouse IgG (hybridoma)) VH: QVQLQQSGPELVRPGTSVKVSCKASGYAFTNYLIEWVKQRPGQGLEWIGVINPGGGNTDYSEKFKDKATLTADKSSNTAYIQLSSLTSEDSAVYFCARSPYSSYVGYAVDYWGQGTSVTVSS VL: DIQMTQSPSSLSASLGERVSLTCRASQDIGSNLNWLQQEPDGTIKRLIYATSSLDSGVPKRFSGSRSGSDYSLTISSLESEDFVVYYCLQYASSPRTFGGGTRLEIK | 300 | 438 | 364 | 307 | 896 | 1190 | 270 | 409 | 314 | 680 |
| TM-17 (antibody, V domains shown) VH: QVQLQQSGAELIRPGTSVKVSCKASGYAFTDYLIEWVKQRPGQGLEWIGVINPGSGGTNYNEKFKGKAKLTADKSSSTAYMQLSSLTSEDSAVYFCVRSSYGVYVAYPMDYWGQGTSVTVSS VL: DIQMTQSPSSLSASLGERVSLTCRASQDIGSNLNWLQQEPDGTIKRLIYATSSLDSGVPKRFSGSRSGSDYSLTISSLESEDFVDYYCLQYASSPRTFGGGTKLEIK | 385 | 425 | 1910 | 437 | 953 | 3960 | 305 | 379 | 1150 | 2620 |
